These results are taken from doi:10.1101/2020.07.27.223255, “Bro1 stimulates Vps4 activity to promote Intralumenal Vesicle Formation during Multivesicular Body biogenesis” (bioRxiv, 2020).

Substitutions are numbered along the chain they refer to. In names and notes the source's numbering stands.

Assay [1] addresses T1, His6-Vps4 (S. cerevisiae, UniProt P52917 1-437).
T1 sequence (looked up): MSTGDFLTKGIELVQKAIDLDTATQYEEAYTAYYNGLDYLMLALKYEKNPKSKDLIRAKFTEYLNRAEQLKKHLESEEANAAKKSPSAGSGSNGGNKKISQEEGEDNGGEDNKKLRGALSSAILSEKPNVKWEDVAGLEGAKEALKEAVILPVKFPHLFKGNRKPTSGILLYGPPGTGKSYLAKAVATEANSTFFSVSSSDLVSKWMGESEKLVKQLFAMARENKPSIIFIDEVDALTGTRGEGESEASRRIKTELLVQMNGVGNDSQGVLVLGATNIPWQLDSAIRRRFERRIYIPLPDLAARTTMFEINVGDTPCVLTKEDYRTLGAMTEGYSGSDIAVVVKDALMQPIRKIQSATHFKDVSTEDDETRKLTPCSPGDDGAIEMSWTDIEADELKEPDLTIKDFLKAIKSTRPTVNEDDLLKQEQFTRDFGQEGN
Put plainly: cell-based or functional assay.

Assay [2] deals with T1, His6-Vps4. Put plainly: pull-down; His6-Vps4 (10 μg) or His6-MIT on Ni-NTA agarose; 6 μg Bro1V or mutants in ATPase buffer + 0.02% Tween20, 1 hour at 30°C; four washes NiA buffer with 10 mM imidazole; eluted with 200 mM imidazole; protein stain and anti-Bro1 immunoblot. The settings on record: both partners purified.

B1: Bro1 V domain (Bro1V, aa 370-709), GST tag removed (domain or fragment, S. cerevisiae, UniProt P48582 370-709, looked up)
chain: DVYEKESIYSEEKATLLRKQVEETETANLEYSSFIEFTNLPRLLSDLEKQFSDGNIFSNTDTQGQLMRDQIQTWCKFIQTNEFRDIEEQMNKIVFKRKQILEILSALPNDQKENVTKLKSSLVAASNSDEKLFACVKPHIVEINLLNDNGKIWKKFDEFNRNTPPQPSLLDIDDTKNDKILELLKQVKGHAEDLRTLKEERSRNLSELRDEINNDDITKLLIINKGKSDVELKDLFEVELEKFEPLSTRIEATIYKQSSMIDDIKAKLDEIFHLSNFKDKSSGEEKFLEDRKNFFDKLQEAVKSFSIFASDLPKGIEFYDSLFNMSRDLAERVRVAKQTE
B1: in the assay with His6-Vps4 [1], the “Vps4 (0.5μM) ATPase activity with titration of Bro1V (10nM-8μM): maximal stimulation over basal activity (Vps4 of the ATPase assay came from GST-Vps4)” value worked out at 2.6 fold.

B2: Bro1V^M9 (T587D), GST tag removed (domain or fragment, S. cerevisiae, UniProt P48582 370-709, looked up)
chain: B1 chain with T218D
notes: Bro1 V domain, S. cerevisiae, aa 370-709, mutant M9; source: E. coli BL21-DE3, purified (Glutathione Sepharose 4B, AcTEV protease to remove GST, Superdex200 size exclusion)
On to B2, for which the binding result in the assay with His6-Vps4 [2] is “binds”.

B3: Bro1V^M4 (V505A, H508A, I512A), GST tag removed (domain or fragment, S. cerevisiae, UniProt P48582 370-709, looked up)
chain: B1 chain with V136A, H139A, I143A
notes: Bro1 V domain, S. cerevisiae, aa 370-709, mutant M4; source: E. coli BL21-DE3, purified (Glutathione Sepharose 4B, AcTEV protease to remove GST, Superdex200 size exclusion)
For the molecule B3, the binding result with His6-Vps4 [2] is “binds”.

B4: Bro1V^M10 (K481D), GST tag removed (domain or fragment, S. cerevisiae, UniProt P48582 370-709, looked up)
chain: B1 chain with K112D
notes: Bro1 V domain, S. cerevisiae, aa 370-709, mutant M10; source: E. coli BL21-DE3, purified (Glutathione Sepharose 4B, AcTEV protease to remove GST, Superdex200 size exclusion)
Consider B4, for which, in the assay with His6-Vps4 [2], the binding result was “binds”.

B5: Bro1V^M8 (E686A, L691D), GST tag removed (domain or fragment, S. cerevisiae, UniProt P48582 370-709, looked up)
chain: B1 chain with E317A, L322D
notes: Bro1 V domain, S. cerevisiae, aa 370-709, mutant M8; source: E. coli BL21-DE3, purified (Glutathione Sepharose 4B, AcTEV protease to remove GST, Superdex200 size exclusion)
B5: in the assay with His6-Vps4 [2], the binding result is “binds”.
